The target of test [1] is T1, human CD19 exon1-3-His tag protein (human, UniProt P15391 20-186, limits assumed).
T1 construct: membrane-distal part of the extracellular region, made in HEK293E cells; not shown: His tag
T1 sequence (looked up): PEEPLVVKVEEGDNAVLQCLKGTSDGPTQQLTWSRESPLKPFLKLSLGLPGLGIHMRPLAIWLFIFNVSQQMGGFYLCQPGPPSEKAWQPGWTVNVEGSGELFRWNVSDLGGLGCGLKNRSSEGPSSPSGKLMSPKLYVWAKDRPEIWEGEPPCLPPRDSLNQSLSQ
Briefly: ELISA on coated human CD19 exon 1-3-His. (In general: An ELISA detects its analyte on a solid surface through an enzyme-linked reagent.)

The next test has as its target T2, Human CD19-his protein (human, UniProt P15391 20-291).
T2 construct: bought protein; also called recombinant human CD19-His; CD19 full-length protein; not shown: His tag
T2 sequence (looked up): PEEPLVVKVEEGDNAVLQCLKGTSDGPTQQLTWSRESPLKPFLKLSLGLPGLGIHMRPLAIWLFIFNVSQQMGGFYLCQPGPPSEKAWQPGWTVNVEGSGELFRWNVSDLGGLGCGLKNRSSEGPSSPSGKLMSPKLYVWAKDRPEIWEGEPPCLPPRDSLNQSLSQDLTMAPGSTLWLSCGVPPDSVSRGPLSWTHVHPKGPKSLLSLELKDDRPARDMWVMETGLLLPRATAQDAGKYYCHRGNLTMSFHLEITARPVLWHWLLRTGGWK
Briefly: SPR Biacore, Ab captured on Protein A, CD19-His analyte. The essentials:
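Apparent KD came from a Langmuir 1:1 fit of double-referenced sensorgrams. Recombinant human CD19-His analyte (top 200 nM, 1:1 serial dilution, 5 concentrations) flowed over Protein A-captured antibody for 240 s at 30 μl/min, then buffer for up to 600 s. Running buffer HBS-EP+ at 25 °C; regeneration with 10 mM glycine pH 1.5.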

Another test deals with T3, human CD19 on Raji cells (human, UniProt P15391 20-556).
T3 construct: whole, on cells
T3 sequence (looked up): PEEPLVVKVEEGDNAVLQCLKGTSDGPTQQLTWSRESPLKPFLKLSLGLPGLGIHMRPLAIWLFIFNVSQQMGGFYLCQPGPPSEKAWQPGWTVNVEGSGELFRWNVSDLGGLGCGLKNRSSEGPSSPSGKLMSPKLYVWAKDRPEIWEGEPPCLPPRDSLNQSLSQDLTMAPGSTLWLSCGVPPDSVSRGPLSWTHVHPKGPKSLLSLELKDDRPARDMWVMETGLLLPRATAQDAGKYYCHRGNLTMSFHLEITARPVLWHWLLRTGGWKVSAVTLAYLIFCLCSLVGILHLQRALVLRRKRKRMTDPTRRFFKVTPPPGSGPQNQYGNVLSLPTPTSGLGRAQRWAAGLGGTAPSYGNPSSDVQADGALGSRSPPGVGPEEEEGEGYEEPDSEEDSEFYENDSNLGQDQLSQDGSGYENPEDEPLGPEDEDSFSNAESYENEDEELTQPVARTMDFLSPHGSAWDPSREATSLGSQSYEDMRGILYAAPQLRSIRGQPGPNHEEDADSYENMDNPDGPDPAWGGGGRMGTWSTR
Briefly: FACS on Raji cells.

The target of test [2] is T4, monkey CD19 on HEK293T-monkey CD19 cells (monkey).
T4 construct: whole, on cells
In words: FACS on HEK293T-monkey CD19 cells. An outline of the steps: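 Antibody binding was read as MFI by flow cytometry and EC50 was taken from curve fitting. Before that, cells at 2×10⁶ cells/ml in PBS with 2% (w/w) BSA were exposed to samples for 2 h on ice and washed. Parental HEK293T cells were tested the same way.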

In the next test the target is T5, monkey CD19 protein (monkey).
T5 construct: also called monkey CD19-His protein
Briefly: ELISA, coated monkey CD19 protein. As to the method:
Human CD19-his protein (purchased from ACROBiosystems, catalog number: CD9-H52H2) was diluted with PBS to a final concentration of 4 μg/mL, and then added to a 96-well ELISA plate at 100 μl/well. The plate was sealed with a plastic film and incubated overnight at 4° C., the plate was washed 2 times with PBS the next day, and then a blocking solution [PBS+2% (w/w) BSA] was added for blocking at room temperature for 2 h. The blocking solution was poured off, and 100 nM gradiently diluted CD19 chimeric antibody or control antibody was added at 50 μl/well. After incubation at 37° C. for 2 h, the plate was washed 3 times with PBS. […] TMB substrate was added at 50 μl/well, and incubated at room temperature for 10 min, and then a stop solution (1.0 N HCl) was added at 50 μl/well. The OD450 nm values were read by an ELISA microplate reader (Multimode Plate Reader, EnSight, purchased from Perkin Elmer).
In order to detect the species cross-binding activity of the chimeric antibodies, an ELISA plate was coated with commercial murine CD19 (ACROBiosystems, catalog number: 50510-M08H) and monkey CD19 (ACROBiosystems, catalog number: 90051-C08H), respectively, and the ELISA detection was performed according to the method in example 5.1.

The target of test [3] is T6, human CD19 on CHO-K1-human CD19 cells (human, UniProt P15391 20-556).
T6 construct: whole, on cells; also called CHO-K1-human CD19-2C8
T6 sequence (looked up): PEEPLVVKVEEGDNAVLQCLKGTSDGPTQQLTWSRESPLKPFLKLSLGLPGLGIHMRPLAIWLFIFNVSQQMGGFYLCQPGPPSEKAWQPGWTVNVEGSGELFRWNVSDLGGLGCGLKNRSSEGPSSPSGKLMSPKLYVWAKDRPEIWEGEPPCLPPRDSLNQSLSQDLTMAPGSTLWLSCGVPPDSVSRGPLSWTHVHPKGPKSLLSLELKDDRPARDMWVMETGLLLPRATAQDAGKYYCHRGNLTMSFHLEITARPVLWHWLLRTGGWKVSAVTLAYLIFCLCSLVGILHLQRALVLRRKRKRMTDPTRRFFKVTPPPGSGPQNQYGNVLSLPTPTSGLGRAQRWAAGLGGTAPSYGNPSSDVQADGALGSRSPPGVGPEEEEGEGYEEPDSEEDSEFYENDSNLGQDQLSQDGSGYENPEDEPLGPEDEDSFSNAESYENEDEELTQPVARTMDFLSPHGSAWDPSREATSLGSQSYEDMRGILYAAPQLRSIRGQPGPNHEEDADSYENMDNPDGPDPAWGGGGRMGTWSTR
In words: FACS on CHO-K1-human CD19 cells.

What is called Kd is the concentration at which binding is half-saturated. Usually koff stands for the first-order rate constant of dissociation. The kon is the second-order rate constant of association. A word on the EC50: it is the concentration that produces a half-maximal response.

B1: F4.58.6 (antibody, human IgG1, V domains shown)
VH: QVQLQQPGAELVKPGASVKLSCKASGYTFTSYWMHWVKQRPGQGLEWIGEIDPSDSYSNYNQKFKGKATLTVDKSSSTAYMQLSSLTSEDSAVYYCARSNYGSSYGYFDVWGAGTTVTVSS
VL: QIVLTQSPAIMSASPGEKVTMTCSVSSSLSYMHWYQQKPGTSPKRWIYDTSKLASGVPARFSGSGSGTSYSLTISSMEAEDAATYYCHQRSSYPTFGGGTKLEIK
notes: human-murine chimeric antibody, human IgG1 constant
As to B1, the binding result in test [1] is “no binding (tested: 100 nM)”. In the test with Human CD19-his protein, the Kd is 13.9 nM, the koff was 0.002 s⁻¹ and the kon came to 143000 M⁻¹ s⁻¹.

B2: F4.78.1 (antibody, human IgG1, V domains shown)
VH: QVQIQQSGAELARPGASVKLSCKASGYTFTNYWMQWIKQRPGQGLEWIGAIYPGDGDTRYTQKFKGKATLTADKSSSTAYMQLSSLASEDSAVYYCAREEVWSPYGMDYWGQGTSVTVSS
VL: QIVLTQSPAIMSASPGEKVTITCSASSSVSYMGWFQQKPGTSPKLWIYSTSNLASGVPARFSGSGSGTSYSLTISRMEAEDAATYYCQQRSIYPLTFGAGTKLELK
notes: as for B1
B2: the binding result in test [1] is given as “no binding (tested: 100 nM)”. In the test with Human CD19-his protein, this molecule came in with a Kd of 0.926 nM, a koff of 0.00017 s⁻¹ and a kon of 184000 M⁻¹ s⁻¹.

B3: F5.8.6 (antibody, human IgG1, V domains shown)
VH: QVQLHQPGAELVMPGASVTLSCKASGYTFTSYWMHWVKQRPGQGLEWIGEIDPSDSYTTYDQKFKGKATLTVDKFSSTAYMQFSSLTSEDSAVYYCARLTGNHLDYWGQGTTLTVSS
VL: DIVMTQSHKFMSSSVGDRVSITCKASQDVSPAVAWYQQKPGQSPKLLIYSTSYRNTGVPDRFTGSGSGTDFTFTISSVQAEDLAVYYCQQHYSIPLTFGAGTKLELK
notes: as for B1
Consider B3, for which the binding result in test [1] is given as “no binding (tested: 100 nM)”. In the test with Human CD19-his protein, binding was characterised by a dissociation constant (Kd) of 5.98 nM, the koff is 0.00108 s⁻¹ and the kon was 181000 M⁻¹ s⁻¹.

B4: F5.7.1 (antibody, human IgG1, V domains shown)
VH: QVTLKESGPGILQPSQTLSLTCSFSGFSLTTFGMGVGWIRQPSGKGLEWLTHIWWDDDKYYNPALKSRLTISKDTSKNQVFLRIANVDTADTATYYCARVITTGVPYFDYWGQGTTLTVSS
VL: ENVLTQSPAIMSASPGEKVTMTCRASSSVSSSYLYWYQQKSGASPKLWISSTSNLASGVPARFSGSGSGTSYSLTINSVEAEDAATYYCQQYSGYPWTFGGGTKLEIK
notes: as for B1
For the molecule B4, in test [1], the binding result is “no binding (tested: 100 nM)”. In the test with Human CD19-his protein, the Kd is 1.18 nM, the koff was found to be 0.000225 s⁻¹ and the kon amounted to 192000 M⁻¹ s⁻¹.

B5: F3.148.10 (antibody, human IgG1, V domains shown)
VH: EVQLQQSGAELVRPGSSVTMSCKTSGYTFTNYGINWVKQRPGQGLEWIGYIFIGNDYTEYNEKFKGKATLTSDTSSSTAYMQLSSLTSEDSAIYFCTRFYSNYYGMDPWGQGTSVTVSS
VL: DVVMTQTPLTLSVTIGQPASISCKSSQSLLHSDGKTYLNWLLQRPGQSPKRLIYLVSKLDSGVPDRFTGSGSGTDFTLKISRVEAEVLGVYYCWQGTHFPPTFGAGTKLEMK
notes: human-murine chimeric antibody, human IgG1
Take B5: in the test with human CD19 on Raji cells, the EC50 was determined as 0.28 nM and the “Maximum mean fluorescence intensity” value was found to be 31800. Further, the “Maximum mean fluorescence intensity” value in test [2] is 177. In addition, in the test with monkey CD19 protein, the “OD450 at 0.0001 nM” value came out at 0.06 OD450, the “OD450 at 0.001 nM” value turned out to be 0.06 OD450, the “OD450 at 0.01 nM” value was found to be 0.07 OD450 and the “OD450 at 0.10 nM” value amounted to 0.13 OD450. In addition, in the test with monkey CD19 protein, the “OD450 at 1.00 nM” value amounted to 0.78 OD450, the “OD450 at 10 nM” value turned out to be 1.93 OD450 and the “OD450 at 100 nM” value was found to be 2.47 OD450. For the same molecule, in test [3], the response was half-maximal at 0.26 nM (EC50) and the “Maximum mean fluorescence intensity” value was determined as 4700.

B6: F5.2.9 (antibody, human IgG1, V domains shown)
VH: QVTLKESGPGILQPSQTLSLTCSFSGFSLSTFGLGVGWVRQPSGKGLEWLAHIWWDDDKYYNPALKSRVTVSKETSKNQVFFKIANVDTADSATYYCARLSRGLRRDVVYAMDHWGQGTSVTVSS
VL: DIQMTQTTSSLSASLGDRVTISCRASQDISNYLNWYQQKPDGSVKLLISYVSRLQSGVPSRFRGSGSGTDYSLTISNLDQEDIATYFCQQGIAFPYTFGGGTKLDIK
notes: as for B1
B6: in test [1], the binding result is recorded as “no binding (tested: 100 nM)”. In the test with Human CD19-his protein, the affinity, expressed as Kd, was 15.7 nM; the koff amounted to 0.000402 s⁻¹; the kon turned out to be 25700 M⁻¹ s⁻¹.

B7: F4.49.11 (antibody, human IgG1, V domains shown)
VH: DVQLRASGPGLVKPSQSLSLTCSVTGYSITSGYYWNWIRQFPGNKLEWMGCISYDGTNNYNPSLKNRISFTRDTSKNQFFLNLNSVTTEDSATYYCARRVYYRYDGVVDYWGQGTSVTVSS
VL: ENVLTQSPAIMSASPGEKVTMTCSASSSVSYIHWYQQKSSTAPKLWIYDTSKLASGVPGRFSGSRSRNSYSLTISSMEAEDVATYYCFQGSGYPLTFGSGTKLEIK
notes: as for B1
With B7, the binding result in test [1] is “no binding (tested: 100 nM)”. In the test with Human CD19-his protein, this molecule registered a Kd of 17.6 nM, a koff of 0.00128 s⁻¹ and a kon of 73000 M⁻¹ s⁻¹.

B8: F4.82.11 (antibody, human IgG1, V domains shown)
VH: QVTLKESGPGILQASQTLSLTCSFSGFSLSTFGIGVGWVRQPSGKGLEWLAHIWWNDNKFFNTTLKNRLTLSKDPSNNQVFLKIASVDTADTATYYCARSRSALITTGLYAMDYWGQGTSVTVSS
VL: DIQMTQTPSSLSASLGDRVTISCRSSQDISNYVNWYQQKPDGTVKVLINYTSRLHSGVPSRFSGSGSGTDYSLTISNLEQEDIASYFCQQGFTLPYTFGGGTKLEIK
notes: as for B1
For the molecule B8, the binding result in test [1] is listed as “no binding (tested: 100 nM)”. In the test with Human CD19-his protein, binding was characterised by a dissociation constant (Kd) of 22.7 nM, the koff was found to be 0.000774 s⁻¹ and the association rate constant (kon) was determined as 34100 M⁻¹ s⁻¹.

B9: F5.3.6 (antibody, human IgG1, V domains shown)
VH: DVQLQESGPGLVKPSQSQSLTCSVTGYSITSGYYWNWIRQFPGNKLEWMGYISYDGSNNYNPSLKNRISITRDTSKNQFFLKLNSVTTEDTVTYYCARAPLTGDRYWYFDVWGTGTTVTVSS
VL: DIVLTQSPASLAVSLGQRATISCRASQSVSTSSYSYMHWYQQKPGQTPKLLIKYASNLKSGVPARFSGSGSGTDFTLNIHPVEEEDTATYYCQHSWEIPPTFGGGTKLEIK
notes: as for B1
Take B9: in test [1], the binding result is given as “no binding (tested: 100 nM)”. In the test with Human CD19-his protein, this molecule displayed a Kd of 3.49 nM, a koff of 0.000122 s⁻¹ and a kon of 35100 M⁻¹ s⁻¹.
